According to US10941182 (Amgen, dated 2021):
Starred links: 1 amine or outer side, 2 acyl side, 3 side chain; linkers in the order of their positions; H or OH if unused. Non-standard residues stand in square brackets, D forms with d. *: point of attachment. dBip = N[C@H](Cc1ccc(-c2ccccc2)cc1)C(=O)O; Oic = O=C(O)[C@@H]1C[C@@H]2CCCC[C@@H]2N1; Phe(4-Cl) = N[C@@H](Cc1ccc(Cl)cc1)C(=O)O; Phe(4-I) = N[C@@H](Cc1ccc(I)cc1)C(=O)O; γGlu = O=C(O)[C@H](CCC(=O)[*:2])N[*:1]; Tridecanoyl = CCCCCCCCCCCCC(=O)*; hArg = N=C(N)NCCCC[C@H](N)C(=O)O; Cha = N[C@@H](CC1CCCCC1)C(=O)O; NMeL = CN[C@@H](CC(C)C)C(=O)O; Nle = CCCC[C@H](N)C(=O)O; AEEA = NCCOCCOCC(=O)O

T1: human APJ receptor (human, UniProt P35414 1-380)
T1 sequence (looked up): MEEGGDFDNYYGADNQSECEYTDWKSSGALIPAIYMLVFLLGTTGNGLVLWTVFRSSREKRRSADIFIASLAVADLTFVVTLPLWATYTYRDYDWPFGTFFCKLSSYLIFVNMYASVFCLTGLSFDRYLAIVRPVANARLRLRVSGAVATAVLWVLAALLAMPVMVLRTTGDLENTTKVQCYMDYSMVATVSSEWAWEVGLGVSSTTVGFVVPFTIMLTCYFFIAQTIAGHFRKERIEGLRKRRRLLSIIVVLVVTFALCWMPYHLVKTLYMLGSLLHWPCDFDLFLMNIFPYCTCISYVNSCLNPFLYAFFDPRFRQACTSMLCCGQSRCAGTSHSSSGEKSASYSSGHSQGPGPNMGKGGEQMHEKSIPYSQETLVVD

T2: rat APJ receptor (rat, UniProt Q9JHG3 1-377)
T2 sequence (looked up): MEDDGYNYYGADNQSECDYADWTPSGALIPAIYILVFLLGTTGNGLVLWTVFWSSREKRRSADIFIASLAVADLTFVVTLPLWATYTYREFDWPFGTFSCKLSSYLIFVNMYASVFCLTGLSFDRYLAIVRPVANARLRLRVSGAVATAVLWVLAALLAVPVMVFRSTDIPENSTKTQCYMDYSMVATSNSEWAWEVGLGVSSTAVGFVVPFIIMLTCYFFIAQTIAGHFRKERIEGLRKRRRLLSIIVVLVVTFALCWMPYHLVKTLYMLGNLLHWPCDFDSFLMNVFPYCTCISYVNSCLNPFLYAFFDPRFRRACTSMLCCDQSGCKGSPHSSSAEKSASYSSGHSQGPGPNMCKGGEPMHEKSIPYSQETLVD


Legend:
[1] = target: T1, human APJ receptor; experiment: cell-based or functional assay
[2] = target: T2, rat APJ receptor; experiment: cell-based or functional assay

Binder	EC50 Human APJ Receptor [1] [nM]	EC50 Rat APJ Receptor [2] [nM]
Tridecanoyl-[γGlu][AEEA][AEEA]RQRP[hArg][Cha]SHKG[Oic][Phe(4-I)]P[dBip]-OH (SMILES CCCCCCCCCCCCC(=O)N[C@@H](CCC(=O)NCCOCCOCC(=O)NCCOCCOCC(=O)N[C@@H](CCCNC(=N)N)C(=O)N[C@@H](CCC(N)=O)C(=O)N[C@@H](CCCNC(=N)N)C(=O)N1CCC[C@H]1C(=O)N[C@@H](CCCCNC(=N)N)C(=O)N[C@@H](CC1CCCCC1)C(=O)N[C@@H](CO)C(=O)N[C@@H](Cc1c[nH]cn1)C(=O)N[C@@H](CCCCN)C(=O)NCC(=O)N1[C@H](C(=O)N[C@@H](Cc2ccc(I)cc2)C(=O)N2CCC[C@H]2C(=O)N[C@H](Cc2ccc(-c3ccccc3)cc2)C(=O)O)C[C@@H]2CCCC[C@@H]21)C(=O)O) [apelin polypeptide SEQ ID NO: 214]	2.92	5.81
Tridecanoyl-[γGlu][AEEA][AEEA][dR]QRP[dR][Cha]SHKG[Oic][Phe(4-I)]P[dBip]-OH (SMILES CCCCCCCCCCCCC(=O)N[C@@H](CCC(=O)NCCOCCOCC(=O)NCCOCCOCC(=O)N[C@H](CCCNC(=N)N)C(=O)N[C@@H](CCC(N)=O)C(=O)N[C@@H](CCCNC(=N)N)C(=O)N1CCC[C@H]1C(=O)N[C@H](CCCNC(=N)N)C(=O)N[C@@H](CC1CCCCC1)C(=O)N[C@@H](CO)C(=O)N[C@@H](Cc1c[nH]cn1)C(=O)N[C@@H](CCCCN)C(=O)NCC(=O)N1[C@H](C(=O)N[C@@H](Cc2ccc(I)cc2)C(=O)N2CCC[C@H]2C(=O)N[C@H](Cc2ccc(-c3ccccc3)cc2)C(=O)O)C[C@@H]2CCCC[C@@H]21)C(=O)O) [apelin polypeptide SEQ ID NO: 215]	8.42	21.4
Tridecanoyl-[γGlu][AEEA][AEEA]RQRP[dR][Cha]SHKG[Oic][Phe(4-I)]P[dBip]-OH (SMILES CCCCCCCCCCCCC(=O)N[C@@H](CCC(=O)NCCOCCOCC(=O)NCCOCCOCC(=O)N[C@@H](CCCNC(=N)N)C(=O)N[C@@H](CCC(N)=O)C(=O)N[C@@H](CCCNC(=N)N)C(=O)N1CCC[C@H]1C(=O)N[C@H](CCCNC(=N)N)C(=O)N[C@@H](CC1CCCCC1)C(=O)N[C@@H](CO)C(=O)N[C@@H](Cc1c[nH]cn1)C(=O)N[C@@H](CCCCN)C(=O)NCC(=O)N1[C@H](C(=O)N[C@@H](Cc2ccc(I)cc2)C(=O)N2CCC[C@H]2C(=O)N[C@H](Cc2ccc(-c3ccccc3)cc2)C(=O)O)C[C@@H]2CCCC[C@@H]21)C(=O)O) [apelin polypeptide SEQ ID NO: 216]	10.8	22.5
Ac-RQRP[hArg][Cha]SHKG[Oic][Nle]P[Phe(4-Cl)]-OH (SMILES CCCC[C@H](NC(=O)[C@@H]1C[C@@H]2CCCC[C@@H]2N1C(=O)CNC(=O)[C@H](CCCCN)NC(=O)[C@H](Cc1c[nH]cn1)NC(=O)[C@H](CO)NC(=O)[C@H](CC1CCCCC1)NC(=O)[C@H](CCCCNC(=N)N)NC(=O)[C@@H]1CCCN1C(=O)[C@H](CCCNC(=N)N)NC(=O)[C@H](CCC(N)=O)NC(=O)[C@H](CCCNC(=N)N)NC(C)=O)C(=O)N1CCC[C@H]1C(=O)N[C@@H](Cc1ccc(Cl)cc1)C(=O)O) [apelin polypeptide SEQ ID NO: 17]	0.171	1.59
Tridecanoyl-[γGlu][AEEA][AEEA][dR]QRP[hArg][Cha]SHKG[Oic][Phe(4-I)]P[dBip]-OH (SMILES CCCCCCCCCCCCC(=O)N[C@@H](CCC(=O)NCCOCCOCC(=O)NCCOCCOCC(=O)N[C@H](CCCNC(=N)N)C(=O)N[C@@H](CCC(N)=O)C(=O)N[C@@H](CCCNC(=N)N)C(=O)N1CCC[C@H]1C(=O)N[C@@H](CCCCNC(=N)N)C(=O)N[C@@H](CC1CCCCC1)C(=O)N[C@@H](CO)C(=O)N[C@@H](Cc1c[nH]cn1)C(=O)N[C@@H](CCCCN)C(=O)NCC(=O)N1[C@H](C(=O)N[C@@H](Cc2ccc(I)cc2)C(=O)N2CCC[C@H]2C(=O)N[C@H](Cc2ccc(-c3ccccc3)cc2)C(=O)O)C[C@@H]2CCCC[C@@H]21)C(=O)O) [apelin polypeptide SEQ ID NO: 217]	4.67	8.83
Tridecanoyl-[γGlu][AEEA][AEEA][dR]Q[hArg]P[dR][NMeL]SHKG[Oic][Nle]P[Phe(4-Cl)]-OH (SMILES CCCCCCCCCCCCC(=O)N[C@@H](CCC(=O)NCCOCCOCC(=O)NCCOCCOCC(=O)N[C@H](CCCNC(=N)N)C(=O)N[C@@H](CCC(N)=O)C(=O)N[C@@H](CCCCNC(=N)N)C(=O)N1CCC[C@H]1C(=O)N[C@H](CCCNC(=N)N)C(=O)N(C)[C@@H](CC(C)C)C(=O)N[C@@H](CO)C(=O)N[C@@H](Cc1c[nH]cn1)C(=O)N[C@@H](CCCCN)C(=O)NCC(=O)N1[C@H](C(=O)N[C@@H](CCCC)C(=O)N2CCC[C@H]2C(=O)N[C@@H](Cc2ccc(Cl)cc2)C(=O)O)C[C@@H]2CCCC[C@@H]21)C(=O)O) [apelin polypeptide SEQ ID NO: 218]	0.841	14.9
Tridecanoyl-[γGlu][AEEA][AEEA][dR]Q[hArg]P[dR][NMeL]SHKG[Oic][Phe(4-I)]P[Phe(4-Cl)]-OH (SMILES CCCCCCCCCCCCC(=O)N[C@@H](CCC(=O)NCCOCCOCC(=O)NCCOCCOCC(=O)N[C@H](CCCNC(=N)N)C(=O)N[C@@H](CCC(N)=O)C(=O)N[C@@H](CCCCNC(=N)N)C(=O)N1CCC[C@H]1C(=O)N[C@H](CCCNC(=N)N)C(=O)N(C)[C@@H](CC(C)C)C(=O)N[C@@H](CO)C(=O)N[C@@H](Cc1c[nH]cn1)C(=O)N[C@@H](CCCCN)C(=O)NCC(=O)N1[C@H](C(=O)N[C@@H](Cc2ccc(I)cc2)C(=O)N2CCC[C@H]2C(=O)N[C@@H](Cc2ccc(Cl)cc2)C(=O)O)C[C@@H]2CCCC[C@@H]21)C(=O)O) [apelin polypeptide SEQ ID NO: 219]	10.1	45
Tridecanoyl-[γGlu][AEEA][AEEA][dR]Q[hArg]P[dR][NMeL]SHKG[Oic][Nle]P[dBip]-OH (SMILES CCCCCCCCCCCCC(=O)N[C@@H](CCC(=O)NCCOCCOCC(=O)NCCOCCOCC(=O)N[C@H](CCCNC(=N)N)C(=O)N[C@@H](CCC(N)=O)C(=O)N[C@@H](CCCCNC(=N)N)C(=O)N1CCC[C@H]1C(=O)N[C@H](CCCNC(=N)N)C(=O)N(C)[C@@H](CC(C)C)C(=O)N[C@@H](CO)C(=O)N[C@@H](Cc1c[nH]cn1)C(=O)N[C@@H](CCCCN)C(=O)NCC(=O)N1[C@H](C(=O)N[C@@H](CCCC)C(=O)N2CCC[C@H]2C(=O)N[C@H](Cc2ccc(-c3ccccc3)cc2)C(=O)O)C[C@@H]2CCCC[C@@H]21)C(=O)O) [apelin polypeptide SEQ ID NO: 220]	2.72	27.6
Tridecanoyl-[γGlu][AEEA][AEEA][dR]Q[hArg]P[dR][Cha]SHKG[Oic][Nle]P[Phe(4-Cl)]-OH (SMILES CCCCCCCCCCCCC(=O)N[C@@H](CCC(=O)NCCOCCOCC(=O)NCCOCCOCC(=O)N[C@H](CCCNC(=N)N)C(=O)N[C@@H](CCC(N)=O)C(=O)N[C@@H](CCCCNC(=N)N)C(=O)N1CCC[C@H]1C(=O)N[C@H](CCCNC(=N)N)C(=O)N[C@@H](CC1CCCCC1)C(=O)N[C@@H](CO)C(=O)N[C@@H](Cc1c[nH]cn1)C(=O)N[C@@H](CCCCN)C(=O)NCC(=O)N1[C@H](C(=O)N[C@@H](CCCC)C(=O)N2CCC[C@H]2C(=O)N[C@@H](Cc2ccc(Cl)cc2)C(=O)O)C[C@@H]2CCCC[C@@H]21)C(=O)O) [apelin polypeptide SEQ ID NO: 221]	0.196	1.93
